Experimental findings from the Immune Epitope Database (IEDB) are described below.

A value given as a limit tells only on which side of the number the result lay.

Usually Kd stands for the free concentration of one partner at which half of the binding sites on the other are occupied at equilibrium, for simple one-to-one binding. High values mean weaker binding, low ones tighter binding. The IC50 is the concentration needed to halve the response being measured.

One assay addresses HLA-B*45:06. Description: IEDB peptide-MHC binding, purified MHC/competitive/fluorescence; filed as Kd, often an IC50 or EC50 that approximates it; ≥ and ≤ were set here for values at or beyond the usual limits of such assays.
The target in a further assay is HLA-B*15:42. The description is as above.
The target in a further assay is HLA-C*04:01. Described as above.
Another assay addresses HLA-B*83:01. Described as above.
In the next assay the target is HLA-A*23:01. The assay is described as above. Conditions: source organism: Rickettsia bellii RML369-C.
For another assay, the target named is HLA-B*53:01. Description: IEDB peptide-MHC binding, purified MHC/competitive/fluorescence; ≥ and ≤ were set here for values at or beyond the usual limits of such assays. As to conditions: source organism: human gammaherpesvirus 4.
For another assay, the target named is HLA-C*15:02. Description: IEDB peptide-MHC binding, purified MHC/direct/fluorescence; filed as Kd, often an IC50 or EC50 that approximates it; ≥ and ≤ were set here for values at or beyond the usual limits of such assays.
For the next assay, the target named is HLA-C*05:01. The description is as above. Conditions: source organism: Haemophilus influenzae R2846.
The next assay deals with HLA-B*08:01. Described as above. Conditions: source organism: Rickettsia felis URRWXCal2.
A further assay has as its target HLA-B*18:01. Described as above. Conditions: source organism: Rickettsia australis.
The next assay deals with HLA-B*40:01. The description is as above. As to conditions: source organism: Rickettsia australis.
In a further assay the target is HLA-A*24:02. Described as above. As to conditions: source organism: Rickettsia australis.
The target of another assay is HLA-B*27:05. Described as above. Conditions: source organism: Rickettsia australis.
In assay [1] the target is HLA-B*15:01. The description is as above.
The target of another assay is HLA-B*46:01. Described as above. As to conditions: source organism: Rickettsia australis.
For the next assay, the target named is HLA-A*69:01. Described as above.
The target in another assay is HLA-A*31:01. Described as above. As to conditions: source organism: Rickettsia australis.
Assay [2] addresses HLA-A*01:01. Described as above.
Another assay concerns the target HLA-A*11:01. The description is as above. As to conditions: source organism: Rickettsia australis.
Assay [3] has as its target HLA-A*02:01. Described as above.
Another assay addresses HLA-A*26:01. Described as above. Conditions: source organism: Rickettsia felis URRWXCal2.
For assay [4], the target named is HLA-A*03:01. The description is as above. Conditions: source organism: Rickettsia australis.
The target in another assay is HLA-B*44:02. The assay is described as above. Conditions: source organism: Rickettsia australis.
For a further assay, the target named is HLA-B*07:02. The description is as above. As to conditions: source organism: Rickettsia australis.
Assay [5] deals with HLA-B*58:01. Described as above.
The next assay addresses HLA-B*15:17. The assay is described as above. Conditions: source organism: Campylobacter jejuni RM1221.
The target of a further assay is HLA-B*57:01. The description is as above. Conditions: source organism: Campylobacter jejuni RM1221.
Assay [6] concerns the target HLA-A*01:01. Description: IEDB peptide-MHC binding, purified MHC/competitive/fluorescence; filed as Kd, often an IC50 or EC50 that approximates it; ≥ and ≤ were set here for values at or beyond the usual limits of such assays.
Assay [7] deals with HLA-B*58:01. Described as above.
A further assay addresses HLA-C*12:03. The experiment in a line: IEDB peptide-MHC binding, purified MHC/direct/fluorescence; filed as Kd, often an IC50 or EC50 that approximates it; ≥ and ≤ were set here for values at or beyond the usual limits of such assays.
In the next assay the target is HLA-A*02:03. The experiment in a line: IEDB peptide-MHC binding, purified MHC/competitive/fluorescence; filed as Kd, often an IC50 or EC50 that approximates it; ≥ and ≤ were set here for values at or beyond the usual limits of such assays. Conditions: source organism: Haemophilus influenzae R3021.
A further assay has as its target HLA-A*02:11. Described as above. Conditions: source organism: Haemophilus influenzae R3021.
A further assay deals with HLA-A*02:06. The assay is described as above.
Assay [8] addresses HLA-B*15:01. The assay is described as above.
The target in assay [9] is HLA-A*03:01. The description is as above. Conditions: source organism: Salmonella enterica subsp. enterica serovar Typhi.
Another assay concerns the target HLA-C*03:03. Description: IEDB peptide-MHC binding, purified MHC/direct/fluorescence; filed as Kd, often an IC50 or EC50 that approximates it; ≥ and ≤ were set here for values at or beyond the usual limits of such assays. Conditions: source organism: Salmonella enterica subsp. enterica serovar Typhi str. CT18.
The target in assay [10] is HLA-A*02:01. The experiment in a line: IEDB peptide-MHC binding, purified MHC/competitive/fluorescence; filed as Kd, often an IC50 or EC50 that approximates it; ≥ and ≤ were set here for values at or beyond the usual limits of such assays. Conditions: source organism: Yersinia pestis Nepal516.
Setting [11] is: source organism: Mycobacterium tuberculosis C.
Where [12] appears, read: source organism: Yellow fever virus 1899/81.
[13] abbreviates: source organism: Rickettsia australis.
Where [14] appears, read: source organism: Escherichia coli.
[15] abbreviates: source organism: Haemophilus influenzae.
The mark [16] stands for this setting: source organism: Human herpesvirus 4 strain B95-8.
Setting [17] is: source organism: Salmonella enterica subsp. enterica serovar Paratyphi B str. SPB7.
The mark [18] stands for this setting: source organism: Salmonella enterica subsp. enterica serovar Typhi.

For RLYQYSFAK, the Kd in the assay with HLA-B*45:06 (setting [11]), with HLA-B*15:42 (setting [11]), in the assay with HLA-C*04:01 (setting [11]) and in the assay with HLA-B*83:01 (setting [11]) was at least 5000 nM throughout.

For the sequence REMHHLVEF, the dissociation constant Kd with HLA-B*45:06 (setting [12]), with HLA-B*15:42 (setting [12]), with HLA-C*04:01 (setting [12]) and in the assay with HLA-B*83:01 (setting [12]) was at least 5000 nM in each case.

VMLQIPFYK returned a Kd with HLA-A*23:01 of 308 nM.

On to MTAASYARY, for which, in the assay with HLA-B*53:01, the IC50 was at least 20000 nM.

As to TSDEIYMTF, the Kd with HLA-C*15:02 (source organism: Haemophilus influenzae R2846) was at least 20000 nM; with HLA-C*05:01, 16 nM.

Turning to ATYGTAVNK, the Kd with HLA-B*08:01, with HLA-B*18:01, with HLA-B*40:01, with HLA-A*24:02, with HLA-B*27:05 and in the assay with HLA-B*15:01 [1] (setting [13]) was at least 20000 nM throughout. The dissociation constant (Kd) with HLA-B*46:01 is at least 20000 nM; with HLA-A*69:01 (setting [13]), at least 20000 nM; in the assay with HLA-A*31:01, 37.1 nM; with HLA-A*01:01 [2] (setting [13]) it was at least 20000 nM; with HLA-A*11:01, 29.6 nM; with HLA-A*02:01 [3] (setting [13]), at least 20000 nM. Further, the dissociation constant (Kd) with HLA-A*26:01 is at least 20000 nM; with HLA-A*03:01 [4], 83.3 nM; with HLA-B*44:02, at least 20000 nM; with HLA-B*07:02 it was at least 20000 nM; with HLA-B*58:01 [5] (setting [13]), at least 20000 nM.

Consider HSNSEYLMF, for which the equilibrium dissociation constant (Kd) in the assay with HLA-B*15:17 came to 1.1 nM; with HLA-C*15:02 (source organism: Campylobacter jejuni), 93 nM; in the assay with HLA-B*57:01, 134 nM; in the assay with HLA-B*58:01 [5] (source organism: Campylobacter jejuni RM1221), 5.5 nM.

In the case of YSALRPHEY, the results for the Kd with HLA-A*01:01 [6] (setting [14]), with HLA-B*58:01 [7] (setting [14]) and with HLA-C*12:03 (source organism: Escherichia coli B171) were 12 nM, 1380 nM and 9 nM, respectively.

For the sequence HPVLVTATL, in the assay with HLA-B*53:01, the IC50 amounted to 3910 nM.

The sequence MLNRYKLIY displayed an IC50 with HLA-B*53:01 of 170 nM.

Consider MLEEMQSAV, for which the equilibrium dissociation constant (Kd) in the assay with HLA-A*02:03 is 4.4 nM; with HLA-A*02:11, at most 0.1 nM; with HLA-A*02:06 (source organism: Haemophilus influenzae R3021), at most 0.1 nM; with HLA-B*15:01 [1] (setting [15]) it was at least 67200 nM; in the assay with HLA-A*69:01 (setting [15]), 2660 nM; with HLA-A*01:01 [2] (setting [15]), 2100 nM. Also, in the assay with HLA-A*02:01 [3] (setting [15]), the dissociation constant Kd was found to be 71 nM.

As to KAVETPILV, the dissociation constant (Kd) with HLA-C*15:02 (setting [16]) is 51 nM; in the assay with HLA-C*12:03 (setting [16]) it was at most 1 nM.

With FSDLLSMAW, the figures for the Kd in the assay with HLA-B*15:01 [8] (setting [17]), with HLA-A*01:01 [6] (setting [17]) and in the assay with HLA-B*58:01 [7] (setting [17]) were at least 20000 nM, 1.4 nM and 2.4 nM, respectively.

Regarding ASIADILTY, the Kd is 425 nM in the assay with HLA-B*15:01 [8] (setting [18]), 764 nM with HLA-A*01:01 [6] (setting [18]), at least 20000 nM with HLA-A*03:01 [9] and 20.7 nM in the assay with HLA-B*58:01 [7] (setting [18]).

For MMQTYTGAL, the values for the dissociation constant Kd with HLA-B*15:01 [8] (source organism: Salmonella enterica subsp. enterica serovar Typhi str. CT18) and with HLA-C*03:03 were 64.9 nM and 119 nM, respectively.

Consider RQPLNIQAI, for which the dissociation constant Kd was 305 nM in the assay with HLA-A*02:01 [10] and 59.2 nM with HLA-A*02:06 (source organism: Yersinia pestis Nepal516).
